The results in this text go back to patent US10028997B2, “Systems and methods for attracting and trapping brain cancer cells” (GEISINGER HEALTH SYSTEM, priority 2014, dated 2018).

Holding throughout (type): cell-based
Assay [1] has as its system human glioblastoma stem cells (hGSCs). Kind of assay: Boyden chamber migration, crystal violet staining and microscope cell count. The following applies: for hGSC migration (cells counted in bottom chamber): 10 μg/ml in bottom chamber, 16 hours, serum free medium, p<0.0001, FIGS. 3B and 3C. As to the method: Finally, human glioblastoma cell migration was also observed under the microscope. hGSCs were seeded in the upper Boyden chamber in serum free medium. Lcn2 was added to the bottom chamber at 10 μg/ml and cells were allowed to migrate for 16 hours. The bottom chamber was fixed and stained with crystal violet and cells were counted using a Zeiss Phase Contrast microscope at 10× magnification. […] To show the specificity of the Lcn2 chemotactic effect and to determine if the effect of Lcn2 on migration is […], Lcn2 was denatured by boiling in SDS buffer for 10 minutes and then added to the bottom Boyden chamber.

For assay [2] the test system is unchanged. Description: XCELLIGENCE RTCA CIM-16 (Boyden chamber) migration of hGSCs, Lcn2 in lower chamber. The protocol:
Human glioblastoma stem cells (hGSCs) were seeded in an XCELLIGENCE RTCA CIM-16 plate, which functions as a Boyden chamber, in serum-free media. The XCELLIGENCE system (ACEA BIOSCIENCES, INC.) measures total surface area covered by cell membrane by detecting the electrical impedance, using microelectronic biosensor technology (Ness et al., NATURE COMMUNICATIONS 4:1912 (2013)). The lower chamber was supplemented with 10 μg/ml Lcn2 or 10% serum. Cell migration from the upper to the lower chamber was measured and plotted over time and the migration slope was calculated using RTCA DP software (ACEA BIOSCIENCES, INC.). The experiment was repeated four times and the results are presented as average+/−standard deviation.

The test system is the same in assay [3]. Description: Chemotaxis assay plate, linear Lcn2 gradient. Conditions: linear gradient of 10 μg/ml Lcn2 for 8 hours, FIGS. 4A-C.
A further assay relates to human glioblastoma cells. Description: XCELLIGENCE migration after Lcn2 pre-treatment of glioblastoma cells. Conditions: pre-treated with 10 μg/ml Lcn2 for 24 hours; p<0.0001; FIGS. 2B and 2C. As to the method: To further determine the effect of Lcn2 on glioblastoma cell migration, glioblastoma cells were first pre-treated with 10 μg/ml Lcn2 for 24 hours. Migration was subsequently quantified using the XCELLIGENCE system in the presence or absence of Lcn2 as a chemo-attractant in the lower Boyden chamber.

B1: denatured Lcn2: Lcn2 denatured by boiling in SDS buffer for 10 minutes (protein)
chain: QDSTSDLIPAPPLSKVPLQQNFQDNQFQGKWYVVGLAGNAILREDKDPQKMYATIYELKEDKSYNVTSVLFRKKKCDYWIRTFVPGCQPGEFTLGNIKSYPGLTSYLVRVVSTNYNQHAMVFFKKVSQNREYFKITLYGRTKELTSELKENFIRFSKSLGLPENHIVFPVPIDQCIDG
As for B1, in assay [1], the “hGSC migration (cells counted in bottom chamber)” value is recorded as “No effect on hGSC migration was observed”.

B2: lipocalin-2 (protein, listed as Homo sapiens)
chain: MPLGLLWLGLALLGALHAQAQDSTSDLIPAPPLSKVPLQQNFQDNQFQGKWYVVGLAGNAILREDKDPQKMYATIYELKEDKSYNVTSVLFRKKKCDYWIRTFVPGCQPGEFTLGNIKSYPGLTSYLVRVVSTNYNQHAMVFFKKVSQNREYFKITLYGRTKELTSELKENFIRFSKSLGLPENHIVFPVPIDQCIDG
notes: member of the lipocalin family, a 23 kDa hydrophilic protein
On to B2, for which the “migration of hGSCs from upper to lower chamber” value in assay [2] (10 μg/ml Lcn2 in lower chamber vs 10% serum, serum-free media, FIG. 2A) was “increases the migration of hGSCs as compared to serum alone”. The “attraction of hGSCs toward the bottom chamber containing the Lcn2 depot” value in assay [2] (10 μg/ml Lcn2 in lower chamber, FIG. 3A) is on record as “significantly attracts hGSCs toward the bottom chamber”. Moreover, in assay [3], the “migration towards the opposite direction (chemokinesis)” value is “no difference in migration towards the opposite direction”. The “migration toward the linear Lcn2 gradient (chemotaxis)” value in assay [3] (p<0.005) is given as “increased migration toward the linear Lcn2 gradient”. Further, in assay [1], the “hGSC migration (cells counted in bottom chamber)” value was “a significant increase in hGSC migration was observed”. Besides, in assay [1] (FIGS. 3B, 3C), the “rate of migration of hGSCs, lipocalin-2 in one chamber versus PBS in one chamber or lipocalin-2 in both chambers” value was “increases the rate of migration of human glioblastoma stem cells (hGSCs) to the lipocalin-2-containing chamber”. Also, the “migration after pre-treatment with Lcn2” value with human glioblastoma cells was “induced a significant increase in migration”.
